B1: 25mer peptide 95 of the PDE4D5 peptide array (peptide)
peptide: HLAVGFKLLQEENCDIFQNLTKKQR
notes: peptides 93 to 96 span Y461-K500; SPOT-immobilised; also called spot 95
B2: 25mer peptide 96 of the PDE4D5 peptide array (peptide)
peptide: FKLLQEENCDIFQNLTKKQRQSLRK
notes: peptides 93 to 96 span Y461-K500; SPOT-immobilised; also called spot 96
B3: 25mer peptide 93 of the PDE4D5 peptide array (peptide)
peptide: YNDSSVLENHHLAVGFKLLQEENCD
notes: peptides 93 to 96 span Y461-K500; SPOT-immobilised; also called spot 93
B4: 25mer peptide 94 of the PDE4D5 peptide array (peptide)
peptide: VLENHHLAVGFKLLQEENCDIFQNL
notes: peptides 93 to 96 span Y461-K500; SPOT-immobilised; also called spot 94
B5: Ac-FQNLTK-NH2 (peptide)
peptide: Ac-FQNLTK-NH2
notes: On the array SPOT-synthesised on a slide; also called peptide No 6
B6: Ac-FQNLTR-NH2 (peptide)
peptide: Ac-FQNLTR-NH2
notes: On the array SPOT-synthesised on a slide; also called peptide No 5
B7: Ac-FQNLTA-NH2 (peptide)
peptide: Ac-FQNLTA-NH2
notes: Negative control; On the array SPOT-synthesised on a slide; also called peptide No 4
B8: Ac-YQNLTK-NH2 (peptide)
peptide: Ac-YQNLTK-NH2
notes: On the array the peptide was SPOT-synthesised on a slide; the soluble form Ac-...-NH2 was made 'to resemble SPOT synthesised peptides'; also called peptide No 3
B9: Ac-GFKLL-NH2 (peptide)
peptide: Ac-GFKLL-NH2
notes: On the array SPOT-synthesised on a slide; also called peptide No 11
B10: Ac-KFKLL-NH2 (peptide)
peptide: Ac-KFKLL-NH2
notes: On the array SPOT-synthesised on a slide; also called peptide No 13
B11: Ac-GFALL-NH2 (peptide)
peptide: Ac-GFALL-NH2
notes: Negative control; On the array SPOT-synthesised on a slide; also called peptide No 16
B12: Ac-RFKLL-NH2 (peptide)
peptide: Ac-RFKLL-NH2
notes: On the array SPOT-synthesised on a slide; also called peptide No 14
B13: Ac-GFRLL-NH2 (peptide)
peptide: Ac-GFRLL-NH2
notes: On the array SPOT-synthesised on a slide; also called peptide No 12
B14: Ac-FKLLQ-NH2 (peptide)
peptide: Ac-FKLLQ-NH2
notes: On the array SPOT-synthesised on a slide; also called peptide No 9

The first assay deals with Phospho-Ser16 HSP20 in neonatal cardiac myocytes. Nature of the assay: Ser16 phosphorylation of endogenous HSP20 in neonatal cardiac myocytes (Western blot). It is filed as cell-based, rat. The conditions noted are these: cardiomyocytes, stimulated with isoproterenol alone or with PKA inhibitor pre-treatment; data not shown. As for the experimental part: FIG. 2. The phosphorylation of HSP20 at Ser16 is modulated by PDE4 activity in cardiac myocytes. A, Neonatal cardiac myocytes were treated with isoprenaline for indicated times with or without pre-treatment with the PDE4-specific inhibitor, rolipram. Cellular lysates were blotted for HSP20 and Phospho-Ser16 HSP20. B, Quantifications of data from FIG. 2A (n=3). * Denotes significance at a level p<0.05 over iso treatment.
(§1) HEK293B2 cells are a stable cell line overexpressing the GFP-tagged β2AR were cultured as previously described^48. HEK293B2 cells were transiently transfected with wild type HSP20 or a phosphorylation defective HSP20 (S16A) or a phosphorylation mimic HSP20 (S16D). Neonatal cardiac myocytes were prepared and cultured as previously described^30. Cell lysis, immunopurification and western blotting was done as described before by us in some detail^48. Briefly, HEK 293 cells were transiently transfected with wild-type HSP20 by using Polyfect Transfection Reagent (Qiagen). Transfected HEK 293 cells were treated with 10 μM bs906 or 10 μM control peptide for 0, 15, 30, 60 and 120 min. Control and treated transfected HEK 293 cells were then washed thrice with ice cold PBS (phosphate buffered saline) before cellular lysates were prepared. Cellular lysates were prepared in lysis buffer containing 25 mM Hepes, pH 7.5, 2.5 mM EDTA, 50 mM NaCl, 50 mM NaF, […], 10% (v/v) glycerol, 1% (v/v) Triton X-100 and Complete™ EDTA-free protease inhibitor cocktail tablets (Roche). Protein concentration of lysates were determined using the Bradford assay and all samples were equalised for protein concentration. Proteins were separated by SOS/PAGE (4-12% Bis-Tris gels) and transferred onto nitrocellulose membranes for Western blotting. Antibodies were used to detect phospho-proteins and native proteins in lysates from control and treated cells
To determine whether inhibition of PDE4 activity had similar effects on endogenous phospho-HSP20 levels in heart cells, similar experiments were undertaken using neonatal cardiomyocytes (FIG. 2).
(In western blotting, separated proteins are transferred to a membrane and probed.)
Consider `CCCCCCOC(=O)[C@]1(O)C[C@@H]2O[C@@]1(C)n1c3ccccc3c3c4c(c5c6ccccc6n2c5c31)C(=O)NC4` [KT5720], for which the “HSP20 phosphorylation after PKA inhibitor pre-treatment” value is on record as “markedly attenuated HSP20 phosphorylation”.

`O=S(=O)(NCCNC/C=C/c1ccc(Br)cc1)c1cccc2cnccc12` [Peptide H89, H89]: the “HSP20 phosphorylation after PKA inhibitor pre-treatment” value is given as “markedly attenuated HSP20 phosphorylation”.

A further assay deals with pS16-Hsp20 in SH-SY5Y cells. Nature of the assay: Cell based Hsp20-PDE4D disruptor assay, nucleofected SH-SY5Y cells, pS16-Hsp20 Western blot. The arrangement: species or system human. The conditions noted are these: SH-SY5Y cells nucleofected with 500 μM peptide, 2 hours. On the procedure: FIG. 9. Disrupter induced HSP20 phosphorylation SH-SY5Y cells nucleofected with 500 μM of each peptide and incubated for 2 hours prior to harvesting. Each assay was blotted for Hsp20, pS16-Hsp20 and tubulin. Changes in levels of phospho-Hsp20 relative to DMSO only controls were quantified through densitometry analysis and each assay was normalised to α-tubulin loading control. The results are the average of three separate experiments and error bars represent SEM. *=p<0.05, **=p<0.01 compared to DMSO only controls (Student-T-test)
SDS-PAGE analysis was done on NuPage® pre-cast gels X-cell apparatus (Invitrogen, Paisley) using MES-SDS running buffer, Samples were reduced in Laemmli 2× loading buffer (4% SOS) with 5% β-mercaptoethanol. For Western Blotting (WB) analysis, samples were transferred using NuPage® X-cell blotting module onto a nitrocellulose membrane. Membranes were blocked using 5% Milk in 1×TBST (w/v). Antibodies were incubated in 1% milk in 1×TBST (w/v) for either 1 hour at room temperature or overnight at 4° C. Signals were detected using enhanced chemiluminescence system (Pierce) and developed on an X-omat film developer. Subsequent densitometry analysis was carried out using Quantity One (Bio-Rad).
SH-SY5Y cells (ATCC-CRL-2266) were grown in Dulbecco's Modified Eagle's Medium (DMEM) and F12-Ham's at a 1:1 ratio, media was supplemented with 10% (v/v) fetal bovine serum (FBS), 1% (v/v) L-Glutamine, 1% (v/v) Minimum Essential Medium—With Non-essential Amino Acids (MEM-NAA) and 1% (v/v) Pen/strep. Cells were cultured in a humidified, 5% (v/v) CO2, 37° C. incubator.
SH-SY5Y cells were nucleofected using Cell Line Nucleofector® Kit-V in accordance with manufacturers protocol (Amaxa Biosystems). Setting A-23 on the Nucleofector I device was used which increases cell viability. For each assay, 500 μM of disrupter peptide was incubated with 100 μl of nucleofection solution containing approximately 2×10^6 cells. After nucleofection cells were re-suspended in 500 μl of culture media before being transferred to a 6 well plate with a final volume of 2 ml per well. Cells were incubated for 2 hours prior to harvesting with […] containing protease and phosphatase inhibitors (Roche).
As the cell permeability of the peptides is unknown we used an electroporation technique to introduce the peptides into the SH-SY5Y cells. The Amaxa cell-line specific Nucleofector Kit V (Lonza) was used to transfect the peptides into the cells. […] Each assay used a final concentration of 500 μM of peptide in nucleofector solution containing approximately 2×10^6 SH-SY5Y cells. As peptides were dissolved in 100% DMSO, control transfections with DMSO only were used to compare any changes in phospho-Hsp20 levels. After each transfection the solution was reconstituted in culture media and incubated for 2 hours to allow for cell adhesion prior to the harvesting of viable cells.
Turning to Ac-FKLLQ-NH2 [Peptide 9], the “pS16-Hsp20 levels relative to DMSO only controls” value is given as “indistinguishable from DMSO only controls”.

Turning to Ac-FQNLTK-NH2 [Peptide 6], the “pS16-Hsp20 levels relative to DMSO only controls” value is reported as “significant increase in pS16-Hsp20 levels”. For the molecule Ac-GFALL-NH2 [Peptide 16], the “pS16-Hsp20 levels relative to DMSO only controls” value was “average value similar to the DMSO only controls”. Same read-out and setting: under Ac-GFKLL-NH2 [Peptide 11] stands “indistinguishable from DMSO only controls”.

With Ac-GFRLL-NH2 [Peptide 12], the “pS16-Hsp20 levels relative to DMSO only controls” value is “induced an average increase when compared with DMSO only controls”.

As for Ac-KFKLL-NH2 [Peptide 13], the “pS16-Hsp20 levels relative to DMSO only controls” value is “induced an average increase when compared with DMSO only controls”.

For the molecule “Ac-LTK-NH2 (Ac-Leu-Thr-Lys-NH2) [Peptide 7]”, the “pS16-Hsp20 levels relative to DMSO only controls” value is given as “significant increase in pS16-Hsp20 levels”. The same measure, in the same setting: under Ac-YQNLTK-NH2 [Peptide 3] stands “no effect on phosphorylation levels”.

In another assay the target is T1, His-HSP20 (purified recombinant His-tagged HSP20) (human, UniProt O14558 1-160).
T1 construct: Expressed in E. coli BL21 from pET28c and purified on nickel; also called HSP20-His; HSP20-6His; not shown: His tag from the pET28c vector
T1 sequence: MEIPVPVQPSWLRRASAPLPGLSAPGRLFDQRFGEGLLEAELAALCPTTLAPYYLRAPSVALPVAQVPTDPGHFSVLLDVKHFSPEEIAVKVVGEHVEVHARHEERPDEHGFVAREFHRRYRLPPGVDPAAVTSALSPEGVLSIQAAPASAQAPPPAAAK
The experiment in a line: PDE4D5 peptide array overlaid with HSP20-6His.
Details: not given
The text has this: PDE4 isoform localisation invariably depends on protein-protein interactions, with PDE4s shown to associate with a diverse group of interacting partners such as RACK1^{32, 36}, βarrestin³⁶, β₁-Ar³⁷, DISC1³⁸, the p75 neurotrophin receptor³⁹ and the cardiac IKs potassium channel⁴⁰. […] Dark spots represent positive areas of HSP20 interaction whereas clear spots are negative for the association (FIG. 4A).
On to B1, for which the binding result is given as “binds”. Same read-out and setting: under B2 stands “binds”; under B3, “binds”. Still for that read-out and setting: the same measure for B4: “binds”.

The next assay addresses T1, His-HSP20 (purified recombinant …). Nature of the assay: SPOT peptide array overlaid with purified His-Hsp20.
Details: not given
As for the experimental part:
A variety of peptides were generated and SPOT-synthesised onto slides which were then overlaid with 10 μg/ml of purified His-Hsp20. Interaction with peptides and Hsp20 was evaluated by probing slides with anti-His or Hsp20 antibodies and analysed using enhanced chemi-luminescence techniques, Negative controls used anti-His antibody only with no overlay of His-Hsp20 protein (data not shown).
As for B5, the binding result is on record as “binds”. Still for that read-out and setting: under B6 stands “binds”. On to B7, for which the binding result was “no binding (tested: 10 ug/ml His-Hsp20 overlay)”. With B8, the binding result was “binds”.

On to B9, for which the binding result is recorded as “binds”. Still for that read-out and setting: the same measure for B10: “binds”; for B11: “no binding (tested: 10 ug/ml His-Hsp20 overlay)”; for B12: “binds”. Still for that read-out and setting: the same measure for B13: “binds”; for B14: “binds”.

The subject of another assay is Phospho-Ser16 HSP20 in HEKB2 cells. The experiment in a line: Ser16 phosphorylation of HSP20 in HEKB2 cells overexpressing HSP20 (Western blot). The assay is classed as cell-based. The conditions noted are these: HEKB2 cells, stimulated with isoproterenol alone; data not shown. On the procedure:
FIG. 1. The phosphorylation of HSP20 at Ser16 is modulated by PDE4 activity in HEKB2 cells. A, HEKB2 cells overexpressing HSP20 or HSP20 ser16-Ala mutant were treated with isoprenaline for indicated times. Cellular lysates were blotted for HSP20 and Phospho-Ser16 HSP20. B, HEKB2 cells overexpressing HSP20 were treated with isoprenaline for indicated times, Cellular lysates were blotted for HSP20 and Phospho-Ser16 HSP20. C, HEKB2 cells overexpressing HSP20 were treated with isoprenaline for indicated times following pre-treatment with the PDE4-specific inhibitor, rolipram. Cellular lysates were blotted for HSP20 and Phospho-Ser16 HSP20. D, Quantifications of data from FIGS. 1B and 1C (n=4). * Denotes significance at a level p<0.05 E, Lysate from untransfected HEKB2 cells was blotted for HSP20 and Phospho-Ser16 HSP20.
as §1
In contrast to this, when we transfected these cells with a phospho-null mutant form, Ser16Ala-Hsp20, then no such change was observed (FIG. 1A). In order to evaluate whether PDE4 activity played a role in regulating this phosphorylation process in Hsp20-transfected HEKB2 cells, cells that had either been pre-treated or not with the PDE4 selective inhibitor rolipram were subsequently challenged with isoprenaline (1 μM) (FIGS. 1B and C). […] Endogenous levels of phospho-HSP20 or HSP20 were not detectable in HEKB2 cells (FIG. 1E).
Consider `CCCCCCOC(=O)[C@]1(O)C[C@@H]2O[C@@]1(C)n1c3ccccc3c3c4c(c5c6ccccc6n2c5c31)C(=O)NC4` [KT5720], for which the “HSP20 phosphorylation after PKA inhibitor pre-treatment” value is recorded as “markedly attenuated HSP20 phosphorylation”. The same measure, in the same setting: under `O=S(=O)(NCCNC/C=C/c1ccc(Br)cc1)c1cccc2cnccc12` [Peptide H89, H89] stands “markedly attenuated HSP20 phosphorylation”.
